According to publication PMC10180240, “Semi-Rational Design of L-Isoleucine Dioxygenase Generated Its Activity for Aromatic Amino Acid Hydroxylation” (Molecules, 2023):

Key:
[1] = test system: T1, N[C@@H](CCc1ccccc1)C(=O)O; experiment: succinate release, succinic acid assay kit; Michaelis-Menten fit; assay type: biochemical, Bacillus thuringiensis; conditions: 10 mM alpha-KG, 0.5 mM FeSO4, 10 mM ascorbic acid, 50 mM Bis-Tris pH 6.0, 25 °C
T1 construct: full-length ido (240 aa without tag) in pET-28a(+) NcoI/SalI, expressed in E. coli BL21(DE3), Ni column
Source text: (§1) succinate release, succinic acid assay kit; Michaelis-Menten fit on L-isoleucine dioxygenase (IDO)

N[C@@H](Cc1ccccc1)C(=O)O = test system: T2, N[C@@H](Cc1ccccc1)C(=O)O; experiment: as above; assay type: biochemical, Bacillus thuringiensis; conditions: 10 mM alpha-KG, 0.5 mM FeSO4, 10 mM ascorbic acid, 50 mM Bis-Tris pH 6.0, 25 °C
T2 construct: full-length ido (240 aa without tag) in pET-28a(+) NcoI/SalI, expressed in E. coli BL21(DE3), Ni column
Source text: as §1

## L-isoleucine dioxygenase (IDO) (Bacillus thuringiensis; S153Y)
[1]
  Km: 20 ± 0 µM
  Vmax: 0.08 µmol/min/mg
  kcat: 0.03 s⁻¹
  kcat/Km: 1500 ± 40 M⁻¹ s⁻¹

## L-isoleucine dioxygenase (IDO) (Bacillus thuringiensis; Y143D)
N[C@@H](Cc1ccccc1)C(=O)O
  Km: 40 ± 0 µM
  Vmax: 0.15 µmol/min/mg
  kcat: 0.08 s⁻¹
  kcat/Km: 2000 ± 10 M⁻¹ s⁻¹

## L-isoleucine dioxygenase (IDO) (Bacillus thuringiensis; Y143I)
[1]
  Km: 20 ± 0 µM
  Vmax: 0.08 µmol/min/mg
  kcat: 0.04 s⁻¹
  kcat/Km: 2000 ± 80 M⁻¹ s⁻¹
N[C@@H](Cc1ccccc1)C(=O)O
  Km: 30 ± 0 µM
  Vmax: 0.1 µmol/min/mg
  kcat: 0.04 s⁻¹
  kcat/Km: 1330 ± 40 M⁻¹ s⁻¹

## L-isoleucine dioxygenase (IDO) (Bacillus thuringiensis; S153Q)
[1]
  Km: 40 ± 10 µM
  Vmax: 0.21 µmol/min/mg
  kcat: 0.14 ± 0.01 s⁻¹
  kcat/Km: 3500 ± 100 M⁻¹ s⁻¹

## L-isoleucine dioxygenase (IDO) (Bacillus thuringiensis; S153A)
[1]
  Km: 20 ± 0 µM
  Vmax: 0.09 µmol/min/mg
  kcat: 0.05 s⁻¹
  kcat/Km: 2500 ± 40 M⁻¹ s⁻¹
N[C@@H](Cc1ccccc1)C(=O)O
  Km: 20 ± 0 µM
  Vmax: 0.05 µmol/min/mg
  kcat: 0.03 s⁻¹
  kcat/Km: 1500 ± 50 M⁻¹ s⁻¹
